Experiment: label from the status in PepcDB records
For “HLGIPPSGALDQYALRAANLLVGNAPTAAVLECALLGPQLEFQRDALVAVCGARMTPRLEGAEMPLDTSFRVRAGQVLGFDFIRAGARGYLAIDGGIAVPEVLGSRSTYGLGAIGGLQGRRLAEGDLLPLGPASPSAVEGLALPRSLQVEVGGEVSLRVVPGLYVHRLTPDAVERFFAETWTVGSEADRTGYRFKGGTALRFEPREQPFGAGSDPSNIVDACYPIGSIQVPGGLEPIVLHRDAVSGGGYATLGTVISPDLNRLAQMQPNQKGRFVAVSLEEGLEARRRYNWQ”, the protein production was “failed”.
In the case of “HPEKCSECSYSCSSKAALRIHERIHCTDRPFKCNYCSFDTKQPSNLSKHMKKFHGDM”, the protein production is reported as “not failed”.
With “HSAIVILDSRGNIQRFNRLCEDYTGLKEHDVIGQSVFKLFMSRREAAASRRNNRVFFRSGNAYEVELWIPTRKGQRLFLFRNKFVHSGSGKNEIFLICSGTD” the protein production was “failed”.
In the case of “HYRRALSGPVDPGLAVFSAYWDRGVSCNPAAIAAKLAELAPHIHPVWVVARNKAALLPPGTDHIVPGTRRYWEVMARAKYLVNNVNFPNSVVKRPDAIHLQTHHGTPLKRMGLDQREFPAASKGLDFGALLARIDKWDYSVSANSHSTRMWERAYPSHYISLDHGYPRNDVFYSATADDIRAIRDRLGIPPGRRAILYAPTHRDYEAGWTPRLDLASLADRLGEETVLLVRGHYFYGGAASPLAGLRRSGRVIDVSTYDPVEELCLAADALVTDYSSIMFDYANLNRPIVIYADDWETYAKTRGVYFDLMAEGPGQVTRTQDELAAVFESGAWRDEGARKALSAFRRRFCEFDDGRAAERVVR”, the protein production is reported as “failed”.
In the case of “IDFRPYGGFIFDMDGTLIDTMPAHLAAWQATADRFDFPFCQEWLHSLGGMPSFKIVAELNRHYGLSLDPQTVSKFKMETFAAMELQGDVIQCTGIVLEEYLGQKKIAVGTGSQRESAMRLLSHAGLIDRLDAVVTASDVENHKPCPDTFLLAADRLGIDAQNCLVFEDTELGKRAAHSAGMDCVMVEGNNLV”, the protein production is reported as “failed”.
For “IDLAHPDLALHLHLNRGGAVLSLDGSGVSLHRRGYRAAMGAAPLKENLAAGLIQLTGWDGRMPLVDPFCGSGILLIEAVTMALQQAPGLGRQFGLEGWADFDRELWEREHARARQRRRSDLDLAPVVGYEQDPLIADQARDNIRAAGLDGLISIHSGSFEQQTLPPGPGLLVCNPPYGHRVGSEDDLEQLYRLLGSFVREQASGWQLWLLSGNASLTGALRLKASRRIPVSNGGIDCRWLNYGIR”, the protein production was “failed”.
For “IKENAAQEVLEVQKVIDRLADNGQKALKAFESYNQEQVDNIVHAMALAGLDQHMPLAKLAVEETGRGLYEDKCIKNIFATEYIWNNIKNNKTVGVINEDTQTGVIEIAEPVGVVAGVTPVTNPTSTTLFKAIIAIKTRNPIIFAFHPSAQRCSSEAAKVVYDAAVAAGAPEHCIQWVEKPSLEATKQLMNHDKVALVLATGGAGMVKSAYSTGKPALGVGPGNVPAYIDKTAKIKRSVNDIILSKSFDQGMICASE”, the protein production was “failed”.
In the case of “IKNFLYAWCGKRKMTPAYEIRAVGNKNRQKFMCEVRVEGFNYAGMGNSTNKKDAQSNAARDFVNYLVRINEVKSEEVPAVGIVPPP”, the protein production is reported as “not failed”.
In the case of “IKQMLLDWCRAKTRGYEHVDIQNFSSSWSDGMAFCALVHNFFPEAFDYGQLSPQNRRQNFEVAFSSAETHADCPQLLDTEDMVRLREPDWKCVYTYIQEFYRCLVQKGLVKTKKS”, the protein production is reported as “not failed”.
For “ILQLTSDTLILVDKNGTCLDIDPHSDLWFLQEDRLLGKNLFNLLPDHTFQKLLPDFRRVTQQGITVNRNYRLPLEGGETYYFKCIMQPYDGDKVLCQYRDIT”, the protein production was “failed”.
In the case of “INKIENYEQSTSQLREEINALYNQVIEVGQALSKQRRIVARELRDHIVSEIQNLQMKDANLEISFKKLEEPNIDGIEFVEFLISPNKGEPLKSLNKIASGGELSRIMLALKSIFVKSRGQTAILFDEVDSGVSGQAAQKMAEKMRDIAEYIQVICISHLPQVASMSDHHLLI”, the protein production is reported as “failed”.
For “INYYDTYIKTCLDNLKRKNTRRSIKLDGKGEPKGAKRAKPVKYTAAKLHEKGVLLDIDDLQTNQFKNVTFDIIATEDVGIFDVRSKFLGVEMEKVQLNIQDLLQMQYEGVAVMKMFDKVKVNVNLLIYLLNKKFYGK”, the protein production was “failed”.
In the case of “IPKHPDSEAVAPDPFNPAATQLLDDTSWVLSAWKQADGTARAVPSADQGAPITLTLSTSTGQRHASGFSGCNRYMGSYALKDGKLSFGTLGGTRMACMTPGGQIEGAYLNALTHIDRTGVQMRAPQQMQLVLDNGDTLTFDRSTR”, the protein production is reported as “not failed”.
With “IPLEQGIEFLSVNVEEDSPVVGKKLKDLPLPRDSIIAAIVRGGVLVVPRGDTEILSGDKLYVIVSAEAKETVEETLLGR” the protein production was “not failed”.
For “IQVDYEDVKLDGYFFSPSWIKGPKPTILALNGGDEWSIENYFWLGPAFISCGYNFMVYDQPGTGLSMYEKGKGRRADSEAFHSRAIDFLLTRPEVDPNKIIVHGESFAAYDSLRFASFDHRIAAVISDGGTHAFDWEAMLKWMPPSLAGHGMRILGAKSLDDFAENPRFAYNLEGVLHQIECPLLVMHGAEEILVQPNPLTQALKNYEQAGSKNKTFFPIEDRRIGGLEHCQVDNINVLHEVVLNWL”, the protein production was “not failed”.
For “ISDQAETPMFNIGSAVPRGELVLAMEKIGKLLQERGGSVVIRGHTDGRQFKGEANDNWRLSMDRAHSAYYMLVRGGLSEERVKQVSGFADRRLQVPSNPLADANRRIEILLEADRG”, the protein production was “failed”.
With “ISKASATRHSQLVTHACRLIETSDPVPSLGQLSARLAVSPFHLHRLFKAETGV” the protein production was “failed”.
In the case of “ITSVQPPTGLQEWLKMFQSWSGPEKLLALDELIDSCEPTQVKHMMQVIEPQFQRDFISLLPKELALYVLSFLEPKDLLQAAQTCRYWRILAEDNLLWREKCKEEGIDEPLHIKRRKVIKPGFIHSPWKSAYIRQHRIDTNWRRGELKSPKVLKGHDDHVITCLQFCGNRIVSGSDDNTLKVWSAVTGKCLRTLVGHTGGVWSSQMRDNIIISGSTDRTLKVWNAETGECIHTLYGHTSTVRCMHLHEKRVVSGSRDATLRVWDIETGQCLHVLMGHVAAVRCVQYDGRRVVSGAYDFMVKVWDPETETCLHTLQGHTNRVYSLQFDGIHVVSGSLDTSIRVWDVETGNCIHTLTGHQSLTSGMELKDNILVSGNADSTVKIWDIKTGQCLQTLQGPNKHQSAVTCLQFNKNFVITSSDDGTVKLWDLKTGEFIRNLVTLESGGSGGVVWRIRASNTKLVCAVGSRNGTEETKLLVLDFDVDMK”, the protein production is reported as “failed”.
With “KAEAEQNWWEGPPQDLSVHLWYAGPMERAGAESILANRSDGTFLVRQRVKDAAEFAISIKYNVEVKHIKIMTAEGLYRITEKKAFRGLTELVEFYQQNSLKDCFKSLDTTLQFPFKEPEKRTISR” the protein production was “not failed”.
In the case of “KAKAAFFDIDGTLYREGLISEVFKKLIKYEIIDEEKWYKEVRPEFEKWDNRKGDYDDYLLKMTEIYVDALNGLSKSQVEFIASQVVNQKGERVYTYTRDRIKWHKERGHKIITISGSPIELVRNMAEKYGFDDYRGAEYLLDENDVYTGEVIPMWDSKSKERAVHELEAKYNIDLGESYAYGDTSGDLTMLKMVGNPVCINPTKELVKEILSDEEVKNKIRIIVERK”, the protein production is reported as “not failed”.
With “KEKDTIAAEHKQEASVLLNLHRNKINYLIGETMARMTSLSIAIDRPVDIKKMQSILEKTFDSEPRFSGLYFLNAKGDVTASTTELKTKVNLADRSFFIKAKETKKTVISDSYSSRITGQPIFTICVPVLDSKRNVTDYLVAAIQIDYLKNLINLLSPDVYIEVVNQDGKMIFASGQASHAEDQKPVSGYLDDISWNMKVYPNPVTIEEL” the protein production was “not failed”.
With “KEMKQIQNEFKERMDEGELLNCMRCGFCLPSCPTYIESGFQETHSPRGRIALMKAVADGMIEPDEDVERSLSLCLGCRACEPVCPSGVKYGQLLEEARDIIHQNKKHSLGE” the protein production was “failed”.
In the case of “KFTELEFHRIIGTGQFGLVRVVRNIKTNEVYALKVMHKAPIVESKQIEHVINERKILEEACTHPFCVRLCGAYQDKASLYLLQEWVPGGELFHHLDVEGAFDEPTAMFYAANVLLALEFLHAKGIVYRDLKPENLLLDTQGYIKMADFGFAKYIGGDKTYTICGTPDYQAPEVIMRRGTTKAADYWALGVLIFEMLVGDPPFKSLTGDPWDTFRRTLSGRFYVPNFISDQAADLIFKLLQVNPDKRLGSDKRLGAEEIKRHRWFSRIDWRALEQKKLPSPFRPRVRNPLDTSNFDNFDN”, the protein production is reported as “not failed”.
For “KGDDNYYIIFTSGTTGQPKGVQISHDNLLSFTNWMIEDAAFDVPKQPQMLAQPPYSFDLSVMYWAPTLALGGTLFALPKELVADFKQLFTTIAQLPVGIWTSTPSFADMAMLSDDFCQAKMPALTHFYFDGEELTVSTARKLFERFPSAKIINAYGPTEATVALSAIEITREMVDNYT”, the protein production was “failed”.
In the case of “KGKIQEADNAAKLSAIKFVLKDPLTGDYLVDEKEIEEIVKKTGIETVVLKEYKEGVVLGPLYEFVTKDGRNAYVLSGYAPGFGGNVTVVACFIKTEDGFMLNSVRVIDYSQETPGLGAKIGEESIQRRFFPVPPEGLKNGLRVDKDAGLPKGSPEELKKQGIVKVSDVMTGATITPRAVVTALNLMYRYLEEVSK”, the protein production is reported as “not failed”.
In the case of “KKAVINDSNTPLHLLQPAYQGTYGDLTPEQVKKDIDRVFAYIDKETPARVVDKNTGKVITDYTAMGDEAQLERGAFRLASYEWGVTYSALIAAAETTGDKRYTDYVQNRFRFLAEVAPHFKRVYEEKGKTDSQLLQILTPHALDDAGAVCTAMIKLRLKDESLPVDGLIQNYFDFIINKEYRLADGTFARNRPQRNTLWLDDMFMGIPAVAQMSRYDKEAKNKYLAEAVKQFLQFADRMFIPEKGLYRHGWVESSTDHPAFCWARANGWALLTACELLDVLPEDYPQRPKVMDYFRAHVRGVTALQSGEGFWHQLLDCNDSYLETSATAIYVYCLAHAINKGWIDAIAYGPVAQLGWHAVAGKINEEGQVEGTCVGTGMAFDPAFYYYRPVNVYAAHGYGPVLWAGAEMIRLLNTQHPQMNDSAVQYYQEKQKTTAPIFAVDSE”, the protein production is reported as “not failed”.
For “KKFEQVIYRGITEGKSSNEIREELVHQAGMSSDKAAFIARDQTGTILGQMNSERQKRAGFQAFRWSDSGDERVRDSHRERNGKIYFYADNPLLPGEEYNCRCVAE”, the protein production was “failed”.
With “KLKISEASLEDYSEVVHLFNRNHVYQFPDGRPLTVDDLDLTLKVKEVTHLFLLKNHGVLIGTSAFFKFITYGCLDWNSSFSGFLLIDSKSRSGQAITYLYKTILKKITKLKFSNIYTEISNYNKPSLALSKLNGFKEYDKTYEDILHCRSLRSHL” the protein production was “failed”.
In the case of “KMFFKVIDTLSDNYEKEMLLLEAEAKEQYYQELEKSSREVRKIKHDLKNMLLAICGKAKKQNEISEEIYKIIKELDESDKKIYTSNVVINTIINHKISQAKKLEIKTDVNIKVSKAIHIDYKDAGILLGNILDNAIEACEKIKKKERWIKIDMLHNKNTLFIEVCNSKGKELTNISKSSKSDAHNHGIGISSIKAITKKYDGYVEFVDKGEEFEVVVNLYGMSF”, the protein production is reported as “failed”.
For “KNIEETELVVEEMLEQYPNGKIVRLLFHGEQAKLPIISHIVQEYQVEVSIIQGNIQQTKQGAVGSLYIQLLGEEQNILAAIEGLRKLRVETEVIGNE”, the protein production was “not failed”.
With “KPIKIRGPSHCAGCKEEIKHGQSLLALDKQWHVSCFKCQTCSVILTGEYISKDGVPYCESDYHAQFG” the protein production was “not failed”.
In the case of “KRYIRKEAADALKTMFDAAKKEGYELAAVSGYRSYDRQKVIFDNEVSLKGERKAKEAVAYPGESEHQTGLAMDISSRSNGFELNEAFGSTADGKWVQDNAYKYGFIIRYPKNKEDITKYEYEPWHLRYVGK”, the protein production is reported as “not failed”.
In the case of “KSEIGKYAPFFSLPNAKGEKITRSSDAFKQKSLLINFWASWNDSISQKQSNSELREIYKKYKKNKYIGMLGISLDVDKQQWKDAIKRDTLDWEQVCDFGGLNSEVAKQYSIYKIPANILLSSDGKILAKNLRGEELKKKIENIVEEA”, the protein production is reported as “not failed”.
